Results as given in patent publication US20170274038A1.

Target: angiotensin AT1 receptor (on human umbilical vein endothelial cells) (human) (UniProt P30556)
Test: cell-based or functional assay

UniProt P30556, sequence (P30556 whole entry): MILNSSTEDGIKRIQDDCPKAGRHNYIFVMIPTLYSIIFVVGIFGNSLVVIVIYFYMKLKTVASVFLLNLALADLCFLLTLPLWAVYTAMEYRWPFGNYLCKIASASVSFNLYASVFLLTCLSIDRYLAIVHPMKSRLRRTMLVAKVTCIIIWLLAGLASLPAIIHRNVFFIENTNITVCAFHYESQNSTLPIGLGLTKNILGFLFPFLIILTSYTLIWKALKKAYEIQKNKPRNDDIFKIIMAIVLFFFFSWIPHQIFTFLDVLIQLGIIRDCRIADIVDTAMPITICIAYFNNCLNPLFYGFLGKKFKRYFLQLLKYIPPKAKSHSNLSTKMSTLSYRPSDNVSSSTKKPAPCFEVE

- release of PGE2 and PGI2 from HUVEC (effective concentration of DAA-I): 100 pM
Substance: des-aspartate-angiotensin I (from UniProt P01019 26-34) (peptide)
